In publication PMC4001850 (Journal of Alzheimer's disease : JAD, 2011):
Where no end group is shown, it is not given here.

Molecular target: the molecule itself
Experiment: SEC

LTTRPGSGLTNIKTEEISEVKMDAEFRHDSGYEVHHQKLVFFAEDVGSNK (domain or fragment, human, UniProt P05067-4 575-624, looked up, also: His-Patch thioredoxin fusion (20 kDa), side not given here) [eAβPP_(575-624), His-Patch thioredoxin fusion (20-kDa)]
stoichiometry N: ~2

B1: eAβPP_(290-624), His-Patch thioredoxin fusion (52-kDa) (domain or fragment, human, UniProt P05067-4 290-624, looked up)
chain: PTTAASTPDAVDKYLETPGDENEHAHFQKAKERLEAKHRERMSQVMREWEEAERQAKNLPKADKKAVIQHFQEKVESLEQEAANERQQLVETHMARVEAMLNDRRRLALENYITALQAVPPRPRHVFNMLKKYVRAEQKDRQHTLKHFEHVRMVDPKKAAQIRSQVMTHLRVIYERMNQSLSLLYNVPAVAEEIQDEVDELLQKEQNYSDDVLANMISEPRISYGNDALMPSLTETKTTVELLPVNGEFSLDDLQPWHSFGADSVPANTENEVEPVDARPAADRGLTTRPGSGLTNIKTEEISEVKMDAEFRHDSGYEVHHQKLVFFAEDVGSNK
stoichiometry N: ~2
